Data as given in article PMC11350714 (JACS Au, 2024).

Molecular target: the molecule itself
Assay: mass photometry

B1: MERS-CoV main protease (M^pro) (enzyme)
chain: SGLVKMSHPSGDVEACMVQVTCGSMTLNGLWLDNTVWCPRHVMCPADQLSDPNYDALLISMTNHSFSVQKHIGAPANLRVVGHAMQGTLLKLTVDVANPSTPAYTFTTVKPGAAFSVLACYNGRPTGTFTVVMRPNYTIKGSFLCGSCGSVGYTKEGSVINFCYMHQMELANGTHTGSAFDGTMYGAFMDKQVHQVQLTDKYCSVNVVAWLYAAILNGCAWFVKPNRTSVVSFNEWALANQFTEFVGTQSVDMLAVKTGVAIEQLLYAIQQLYTGFQGKQILGSTMLEDEFTPEDVNMQIMGVVMQ
Question: With B1 as the protein, how does the “stoichiometry N” value read?
Answer: The value was 2.
